Measured values from patent publication US20020055130A1, “Method and product for regulating apoptosis” (National Jewish Center for Immunology and Respiratory …, priority 1997, published 2002).

Target: JNK kinase/SEK-1 (endogenous, Swiss 3T3 cells) (UniProt P47809)
Experiment: cell-based or functional assay

Sequence of JNK kinase/SEK-1 (endogenous, Swiss 3T3 cells) (P47809 2-397 limits assumed): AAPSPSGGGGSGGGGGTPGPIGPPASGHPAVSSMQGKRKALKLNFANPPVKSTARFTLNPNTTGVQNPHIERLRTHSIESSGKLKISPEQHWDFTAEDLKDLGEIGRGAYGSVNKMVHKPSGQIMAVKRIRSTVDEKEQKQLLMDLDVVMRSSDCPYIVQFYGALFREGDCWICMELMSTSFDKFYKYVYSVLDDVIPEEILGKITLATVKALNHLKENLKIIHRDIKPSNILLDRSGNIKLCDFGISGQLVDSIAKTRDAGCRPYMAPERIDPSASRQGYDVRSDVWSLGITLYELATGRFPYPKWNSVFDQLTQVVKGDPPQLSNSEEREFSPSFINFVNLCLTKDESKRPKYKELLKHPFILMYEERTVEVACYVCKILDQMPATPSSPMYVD

inhibition of Gal4/Jun activation in response to MEKKCOOH (luciferase reporter, transient transfection): 65%
Substance: competitive inhibitory JNK/SAPK mutant JNK/SAPK(APF)
